Laboratory results taken from patent US20120288510A1 (UNIVERSITY OF MASSACHUSETTS, published 2012).
Like-named read-outs stand apart in the source and are kept apart here. No end group written: not given here.

Legend:
E2-D = assay: ELISA on coated bacterial fusion protein; two-fold antibody dilutions; goat anti-human AP, PNPP
[1] = target: T1, E2-G bacterially expressed thioredoxin fusion protein (pET32-E2-G, E2 amino acids 412 to 423) (Hepatitis C virus genotype 1a, not fully specified (N-terminus); also: N-terminal thioredoxin fusion partner); assay: Biacore SPR; antibody captured on goat anti-human IgG Fc, E2-G flowed over at varying concentrations; BIAevaluation fit
T1 construct: also called WT; not shown: thioredoxin, N-terminal fusion partner of the pET32 vector; C-terminal myc and 6 histidine tags
T1 chain: QLINTNGSWHIN-{myc tag-His6}

H421A = target: T2, H421A; assay: ELISA on coated bacterial fusion protein; two-fold antibody dilutions; goat anti-human AP, PNPP
T2 construct: alanine scanning mutant of E2-G; also called pET32-E2-G-H421A

Q412A = target: T3, Q412A (not fully specified); assay: as above
T3 construct: alanine scanning mutant of E2-G; also called pET32-E2-G-Q412A; not shown: N-terminal thioredoxin partner and vector-encoded stretch of pET32
T3 chain: ALINTNGSWHINHHHHHH

[2] = target: T1, E2-G bacterially expressed thioredoxin …; assay: as above
T416A = target: T4, T416A; assay: as above
T4 construct: alanine scanning mutant of E2-G; also called pET32-E2-G-T416A; not shown: N-terminal thioredoxin partner and vector-encoded stretch of pET32

I414A = target: T5, I414A (not fully specified); assay: as above
T5 construct: alanine scanning mutant of E2-G; also called pET32-E2-G-I414A (printed in the text as pET32-E2-G-1414A); not shown: N-terminal thioredoxin partner and vector-encoded stretch of pET32
T5 chain: QLANTNGSWHINHHHHHH

S419A = target: T6, S419A; assay: as above
T6 construct: alanine scanning mutant of E2-G; also called pET32-E2-G-S419A

I422A = target: T7, I422A; assay: as above
T7 construct: alanine scanning mutant of E2-G; also called pET32-E2-G-I422A (printed in the text as pET32-E2-G-1422A)

N423A = target: T8, N423A; assay: as above
T8 construct: alanine scanning mutant of E2-G; also called pET32-E2-G-N423A

N417A = target: T9, N417A; assay: as above
T9 construct: alanine scanning mutant of E2-G; also called pET32-E2-G-N417A

N415A = target: T10, N415A (not fully specified); assay: as above
T10 construct: alanine scanning mutant of E2-G; also called pET32-E2-G-N415A; not shown: N-terminal thioredoxin partner and vector-encoded stretch of pET32
T10 chain: QLIATNGSWHINHHHHHH

[3] = target: T11, E2-G bacterially expressed fusion protein with the E2 412-423 sequence of genotype 2b (Hepatitis C virus genotype 2b, also: vector linker residues not given here); assay: as above
T11 construct: not shown: thioredoxin, N-terminal fusion partner of the pET32 vector; C-terminal myc and 6 histidine tags
T11 chain: thioredoxin-HLVNSNGSWHIN-{myc tag-His6 tag}

[4] = target: T1, E2-G bacterially expressed thioredoxin …; assay: as above
[5] = target: T12, E2-G bacterially expressed fusion protein with the E2 412-423 sequence of genotype 6g (Hepatitis C virus genotype 6g, not fully specified (N-terminus); also: N-terminal thioredoxin fusion partner); assay: as above
T12 construct: not shown: thioredoxin, N-terminal fusion partner of the pET32 vector; C-terminal myc and 6 histidine tags
T12 chain: QLIKTNGSWHIN-{myc tag-His6}

[6] = target: T13, E2-G bacterially expressed fusion protein with the E2 412-423 sequence of genotype 3a (Hepatitis C virus genotype 3a, also: vector linker residues not given here); assay: as above
T13 construct: not shown: thioredoxin, N-terminal fusion partner of the pET32 vector; C-terminal myc and 6 histidine tags
T13 chain: thioredoxin-QLVNSSGSWHIN-{myc tag-His6 tag}

[7] = target: T14, E2-G bacterially expressed fusion protein with the E2 412-423 sequence of genotype 6k (Hepatitis C virus genotype 6k, not fully specified (N-terminus); also: N-terminal thioredoxin fusion partner); assay: as above
T14 construct: not shown: thioredoxin, N-terminal fusion partner of the pET32 vector; C-terminal myc and 6 histidine tags
T14 chain: QLINSNGSWHVN-{myc tag-His6}

[8] = target: T15, E2-G bacterially expressed fusion protein with the E2 412-423 sequence of genotype 4a (Hepatitis C virus genotype 4a, also: vector linker residues not given here); assay: as above
T15 construct: not shown: thioredoxin, N-terminal fusion partner of the pET32 vector; C-terminal myc and 6 histidine tags
T15 chain: thioredoxin-QLINSNGSWHIN-{myc tag-His6 tag}

Chain of E2-D (P27958 436-463, tags left off): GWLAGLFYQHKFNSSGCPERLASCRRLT

B1: human antibody 83-128 (antibody, V domains shown)
VH: QVQLVESGGGVVQPGRSLRLSCTASGFTFNNYGMHWVRQTPGKGLEWLAVIWFDENNKYYADSVRGRFTISRDNSKNTLFLQMNSLKTEDTAMYYCARDISLVRDAFIYFDFWGLGTLVTVSS
VL: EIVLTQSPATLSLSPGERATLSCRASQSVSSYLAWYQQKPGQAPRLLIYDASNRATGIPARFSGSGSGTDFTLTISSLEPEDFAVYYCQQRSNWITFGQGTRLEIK
- binding result (E2-D): no binding (tested: 1 µg/ml)
- Kd [1]: 3.8 nM
- koff [1]: 0.00073 s⁻¹
- kon [1]: 190000 M⁻¹ s⁻¹
- EC50 (read off the curve) (H421A): ~0.02 µg/mL
- EC50 (read off the curve) (Q412A): ~0.02 µg/mL
- EC50 (read off the curve) [2]: ~0.02 µg/mL
- EC50 (read off the curve) (T416A): ~0.02 µg/mL
- EC50 (read off the curve) (I414A): ~0.03 µg/mL
- EC50 (read off the curve) (S419A): ~0.02 µg/mL
- EC50 (read off the curve) (I422A): ~0.02 µg/mL
- EC50 (read off the curve) (N423A): ~0.02 µg/mL
- EC50 (read off the curve) (N417A): ~0.02 µg/mL
- EC50 (read off the curve) (N415A): ~0.02 µg/mL
- EC50 (read off the curve) [3]: ~6 ng/mL
- EC50 (read off the curve) [4]: ~6 ng/mL
- EC50 (read off the curve) [5]: ~6 ng/mL
- EC50 (read off the curve) [6]: ~6 ng/mL
- EC50 (read off the curve) [7]: ~6 ng/mL
- EC50 (read off the curve) [8]: ~6 ng/mL
